{"source": "patent US11499162B2", "about": "“Plants having increased tolerance to herbicides” (BASF SE, priority 2016, dated 2022)"}
{"format": "biochemical", "conditions": "pH 7.2", "method": "EXAMPLE 3: Protein Purification. TriA and variants thereof were produced in E. coli BL21(DE3) Gold (Agilent Technologies, Germany). Therefore E. coli was transformed with appropriate pET24d N-HIS tag expression vector and chaperone plasmid pGro7 (chaperones groEL and groES). Bacterial strains were grown at 30° C. in 100 mL LB for 20 h and protein expression induced with 0.1 mM IPTG at 25° C. for 20 hs. Cells were harvested by centrifugation at 3000 rpm at 4° C. for 20 min, resuspended in Bug Buster protein extraction reagent (Novagen, Germany) according to manufactures instructions. Lysates were clarified by centrifugation. Samples of bovine serum albumin ([…]) were loaded onto each gel analyzed by densitometry to provide an internal standard. Protein determinations were verified using Coomassie protein assay dye, according to manufactures instruction (Thermo Scientific; USA). The HIS-tagged enzymes were purified by metal ion affinity chromatography using Ni-IDA 1000 kit (Macherey-Nagel, Germany) following manufactures instructions. Protein purity was accessed by SDS-PAGE using NuPAGE Novex 4-12% Bis-Tris pre-cast gels (Life Technologies; USA) stained with Coomassie Brilliant Blue (Serva, Germany). Protein concentrations were estimated by measuring absorbance at 280 nm using Lambda Bio+(Perkin Elmer, USA). EXAMPLE 4: Enzyme kinetics. Resting cell suspension containing triA gene were incubated with various azines, melamine and atrazine and the culture filtrate was analyzed by UPLC-HR-MS. Substrates were obtained either from Sigma-Aldrich or synthesized internally. Synthetic standards and enzyme reaction products were analysed by UPLC-HR-MS (Thermo/Dionex UPLC UltiMate3000 coupled to a QExactive high resolution mass spectrometer). A Waters Acquity HSS T3 column (2.1 mm; 100 mm; […]) was used with a mobile phase water/acetonitrile (0.1% formic acid) with a flow rate of […]. Enzymes were used solved 25 mM sodium phosphate buffer (pH 7.2) with substrate concentration in the range of 1 nM to 10 nM at 30° C. Over time, the original azine peak disappeared whereas the formed OH-Metabolite (reaction product) increased. The product was identified by determination of the exact formula and by analysis of the accurate MS-MS fragments. Moreover for some of the formed products authentic standards were co-eluted. Degradation in % was calculated against the cells harboring the empty vector as control.", "units": {"Degradation in % of 6-cyclopentyl-N4-(2,3,4,5,6-pentafluorophenyl)-1,3,5-triazine-2,4-diamine": "%", "Degradation in % of Melamine": "%"}}
{"molecule": "D248EE251D: mutated TriA variant of SEQ ID NO: 2 (protein, Pseudomonas) MQTLSIQHGTLVTMDQYRRVLGDSWVHVQDGRIVALGVHAESVPPPADRVIDARGKVVLPGFINAHTHVNQILLRGGPSHGRQLYDWLFNVLYPGQKAMRPEDVAVAVRLYCAEAVRSGITTINDNADSAIYPGNIEAAMAVYGEVGVRVVYARMFFDRMDGRIQGYVDALKARSPQVELCSIMEETAVAKDRITALSDQYHGTAGGRISVWPAPAITPAVTVEGMRWAQAFARDRAVMWTLHMAESEHDDRLHWMSPAEYMECYGLLDERLQVAHCVYFDRKDVRLLHRHNVKVASQVVSNAYLGSGVAPVPEMVERGMAVGIGTDDGNCNDSVNMIGDMKFMAHIHRAVHRDADVLTPEKILEMATIDGARSLGMDHEIGSIETGKRADLILLDLRHPQTTPHHHLAATIVFQAYGNEVDTVLIDGNVVMENRRLSFLPPERELAFLEEAQSRATAILQRANMVANPAWRSL", "Degradation in % of 6-cyclopentyl-N4-(2,3,4,5,6-pentafluorophenyl)-1,3,5-triazine-2,4-diamine": 2, "Degradation in % of Melamine": 1}
{"molecule": "S301T: mutated TriA variant of SEQ ID NO: 2 (protein, Pseudomonas) MQTLSIQHGTLVTMDQYRRVLGDSWVHVQDGRIVALGVHAESVPPPADRVIDARGKVVLPGFINAHTHVNQILLRGGPSHGRQLYDWLFNVLYPGQKAMRPEDVAVAVRLYCAEAVRSGITTINDNADSAIYPGNIEAAMAVYGEVGVRVVYARMFFDRMDGRIQGYVDALKARSPQVELCSIMEETAVAKDRITALSDQYHGTAGGRISVWPAPAITPAVTVEGMRWAQAFARDRAVMWTLHMAESDHDERLHWMSPAEYMECYGLLDERLQVAHCVYFDRKDVRLLHRHNVKVASQVVTNAYLGSGVAPVPEMVERGMAVGIGTDDGNCNDSVNMIGDMKFMAHIHRAVHRDADVLTPEKILEMATIDGARSLGMDHEIGSIETGKRADLILLDLRHPQTTPHHHLAATIVFQAYGNEVDTVLIDGNVVMENRRLSFLPPERELAFLEEAQSRATAILQRANMVANPAWRSL", "Degradation in % of 6-cyclopentyl-N4-(2,3,4,5,6-pentafluorophenyl)-1,3,5-triazine-2,4-diamine": 1, "Degradation in % of Melamine": 0}
{"molecule": "Q298N: mutated TriA variant of SEQ ID NO: 2 (protein, Pseudomonas) MQTLSIQHGTLVTMDQYRRVLGDSWVHVQDGRIVALGVHAESVPPPADRVIDARGKVVLPGFINAHTHVNQILLRGGPSHGRQLYDWLFNVLYPGQKAMRPEDVAVAVRLYCAEAVRSGITTINDNADSAIYPGNIEAAMAVYGEVGVRVVYARMFFDRMDGRIQGYVDALKARSPQVELCSIMEETAVAKDRITALSDQYHGTAGGRISVWPAPAITPAVTVEGMRWAQAFARDRAVMWTLHMAESDHDERLHWMSPAEYMECYGLLDERLQVAHCVYFDRKDVRLLHRHNVKVASNVVSNAYLGSGVAPVPEMVERGMAVGIGTDDGNCNDSVNMIGDMKFMAHIHRAVHRDADVLTPEKILEMATIDGARSLGMDHEIGSIETGKRADLILLDLRHPQTTPHHHLAATIVFQAYGNEVDTVLIDGNVVMENRRLSFLPPERELAFLEEAQSRATAILQRANMVANPAWRSL", "Degradation in % of 6-cyclopentyl-N4-(2,3,4,5,6-pentafluorophenyl)-1,3,5-triazine-2,4-diamine": 0, "Degradation in % of Melamine": 5}
{"molecule": "Q298S: mutated TriA variant of SEQ ID NO: 2 (protein, Pseudomonas) MQTLSIQHGTLVTMDQYRRVLGDSWVHVQDGRIVALGVHAESVPPPADRVIDARGKVVLPGFINAHTHVNQILLRGGPSHGRQLYDWLFNVLYPGQKAMRPEDVAVAVRLYCAEAVRSGITTINDNADSAIYPGNIEAAMAVYGEVGVRVVYARMFFDRMDGRIQGYVDALKARSPQVELCSIMEETAVAKDRITALSDQYHGTAGGRISVWPAPAITPAVTVEGMRWAQAFARDRAVMWTLHMAESDHDERLHWMSPAEYMECYGLLDERLQVAHCVYFDRKDVRLLHRHNVKVASSVVSNAYLGSGVAPVPEMVERGMAVGIGTDDGNCNDSVNMIGDMKFMAHIHRAVHRDADVLTPEKILEMATIDGARSLGMDHEIGSIETGKRADLILLDLRHPQTTPHHHLAATIVFQAYGNEVDTVLIDGNVVMENRRLSFLPPERELAFLEEAQSRATAILQRANMVANPAWRSL", "Degradation in % of 6-cyclopentyl-N4-(2,3,4,5,6-pentafluorophenyl)-1,3,5-triazine-2,4-diamine": 0, "Degradation in % of Melamine": 83}
{"molecule": "S301V: mutated TriA variant of SEQ ID NO: 2 (protein, Pseudomonas) MQTLSIQHGTLVTMDQYRRVLGDSWVHVQDGRIVALGVHAESVPPPADRVIDARGKVVLPGFINAHTHVNQILLRGGPSHGRQLYDWLFNVLYPGQKAMRPEDVAVAVRLYCAEAVRSGITTINDNADSAIYPGNIEAAMAVYGEVGVRVVYARMFFDRMDGRIQGYVDALKARSPQVELCSIMEETAVAKDRITALSDQYHGTAGGRISVWPAPAITPAVTVEGMRWAQAFARDRAVMWTLHMAESDHDERLHWMSPAEYMECYGLLDERLQVAHCVYFDRKDVRLLHRHNVKVASQVVVNAYLGSGVAPVPEMVERGMAVGIGTDDGNCNDSVNMIGDMKFMAHIHRAVHRDADVLTPEKILEMATIDGARSLGMDHEIGSIETGKRADLILLDLRHPQTTPHHHLAATIVFQAYGNEVDTVLIDGNVVMENRRLSFLPPERELAFLEEAQSRATAILQRANMVANPAWRSL", "Degradation in % of 6-cyclopentyl-N4-(2,3,4,5,6-pentafluorophenyl)-1,3,5-triazine-2,4-diamine": 0, "Degradation in % of Melamine": 0}
{"molecule": "S301A: mutated TriA variant of SEQ ID NO: 2 (protein, Pseudomonas) MQTLSIQHGTLVTMDQYRRVLGDSWVHVQDGRIVALGVHAESVPPPADRVIDARGKVVLPGFINAHTHVNQILLRGGPSHGRQLYDWLFNVLYPGQKAMRPEDVAVAVRLYCAEAVRSGITTINDNADSAIYPGNIEAAMAVYGEVGVRVVYARMFFDRMDGRIQGYVDALKARSPQVELCSIMEETAVAKDRITALSDQYHGTAGGRISVWPAPAITPAVTVEGMRWAQAFARDRAVMWTLHMAESDHDERLHWMSPAEYMECYGLLDERLQVAHCVYFDRKDVRLLHRHNVKVASQVVANAYLGSGVAPVPEMVERGMAVGIGTDDGNCNDSVNMIGDMKFMAHIHRAVHRDADVLTPEKILEMATIDGARSLGMDHEIGSIETGKRADLILLDLRHPQTTPHHHLAATIVFQAYGNEVDTVLIDGNVVMENRRLSFLPPERELAFLEEAQSRATAILQRANMVANPAWRSL", "Degradation in % of 6-cyclopentyl-N4-(2,3,4,5,6-pentafluorophenyl)-1,3,5-triazine-2,4-diamine": 6, "Degradation in % of Melamine": 0}
{"molecule": "Q298C: mutated TriA variant of SEQ ID NO: 2 (protein, Pseudomonas) MQTLSIQHGTLVTMDQYRRVLGDSWVHVQDGRIVALGVHAESVPPPADRVIDARGKVVLPGFINAHTHVNQILLRGGPSHGRQLYDWLFNVLYPGQKAMRPEDVAVAVRLYCAEAVRSGITTINDNADSAIYPGNIEAAMAVYGEVGVRVVYARMFFDRMDGRIQGYVDALKARSPQVELCSIMEETAVAKDRITALSDQYHGTAGGRISVWPAPAITPAVTVEGMRWAQAFARDRAVMWTLHMAESDHDERLHWMSPAEYMECYGLLDERLQVAHCVYFDRKDVRLLHRHNVKVASCVVSNAYLGSGVAPVPEMVERGMAVGIGTDDGNCNDSVNMIGDMKFMAHIHRAVHRDADVLTPEKILEMATIDGARSLGMDHEIGSIETGKRADLILLDLRHPQTTPHHHLAATIVFQAYGNEVDTVLIDGNVVMENRRLSFLPPERELAFLEEAQSRATAILQRANMVANPAWRSL", "Degradation in % of 6-cyclopentyl-N4-(2,3,4,5,6-pentafluorophenyl)-1,3,5-triazine-2,4-diamine": 23, "Degradation in % of Melamine": 100}
{"molecule": "Q298T: mutated TriA variant of SEQ ID NO: 2 (protein, Pseudomonas) MQTLSIQHGTLVTMDQYRRVLGDSWVHVQDGRIVALGVHAESVPPPADRVIDARGKVVLPGFINAHTHVNQILLRGGPSHGRQLYDWLFNVLYPGQKAMRPEDVAVAVRLYCAEAVRSGITTINDNADSAIYPGNIEAAMAVYGEVGVRVVYARMFFDRMDGRIQGYVDALKARSPQVELCSIMEETAVAKDRITALSDQYHGTAGGRISVWPAPAITPAVTVEGMRWAQAFARDRAVMWTLHMAESDHDERLHWMSPAEYMECYGLLDERLQVAHCVYFDRKDVRLLHRHNVKVASTVVSNAYLGSGVAPVPEMVERGMAVGIGTDDGNCNDSVNMIGDMKFMAHIHRAVHRDADVLTPEKILEMATIDGARSLGMDHEIGSIETGKRADLILLDLRHPQTTPHHHLAATIVFQAYGNEVDTVLIDGNVVMENRRLSFLPPERELAFLEEAQSRATAILQRANMVANPAWRSL", "Degradation in % of 6-cyclopentyl-N4-(2,3,4,5,6-pentafluorophenyl)-1,3,5-triazine-2,4-diamine": 0, "Degradation in % of Melamine": 63}
